According to paper PMC10127594:

Molecular target: T1, Gac (Borrelia burgdorferi sensu stricto B31) (UniProt O51396)
T1 sequence: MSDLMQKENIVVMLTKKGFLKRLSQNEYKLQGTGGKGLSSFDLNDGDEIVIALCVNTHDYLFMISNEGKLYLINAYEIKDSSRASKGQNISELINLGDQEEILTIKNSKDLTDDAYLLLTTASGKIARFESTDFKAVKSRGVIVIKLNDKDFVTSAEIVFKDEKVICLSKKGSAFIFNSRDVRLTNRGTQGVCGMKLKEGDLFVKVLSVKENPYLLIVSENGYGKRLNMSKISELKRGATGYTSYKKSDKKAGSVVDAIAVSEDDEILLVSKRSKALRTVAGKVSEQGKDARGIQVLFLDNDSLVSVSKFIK
Experiment: competition
Settings: EMSA: 50 mM Tris-HCl (pH not stated), 25 mM KCl, 10% glycerol, 0.01% Tween 20, 100 nM DTT, 1 mM PMSF; 15 min, room temperature; 10 nM probe, 25 nM Gac

Row | Substance | binding signal (fold reduction)
1 | Ip89 ospC operator/promoter | 2
2 | empty pCR2.1 amplicon | < 1.3
3 | AACAGGCAAAAGGATTTGCCAAAGTCAGAAATT (double strand) [flaB competitor] | < 1.3
4 | B31 ospC operator/promoter | 2.6
5 | GTATTAAGTTATATTAATATAAAAGGAGAATATATT (double strand) [ospAB competitor] | < 1.3
